Laboratory results as given in US7279304B2, “Methods for preparation of macrocyclic molecules and macrocyclic molecules prepared thereby” (President and Fellows of Harvard College, priority 2000, dated 2007).

Assays:
Test in all cases: purified protein, by the assay type
Type in all cases: biochemical
[1] = substrate: CC(=O)NCCSC(=O)[C@H](C)NC(=O)[C@H](CCCN)NC(=O)[C@@H](NC(=O)[C@H](Cc1ccc(O)cc1)NC(=O)[C@H](CCC(N)=O)NC(=O)[C@H](CC(N)=O)NC(=O)[C@@H](Cc1ccccc1)NC(=O)[C@H](Cc1ccccc1)NC(=O)[C@@H]1CCCN1C(=O)[C@H](N)Cc1ccccc1)C(C)C; settings: other: Table 1; macrocyclization of peptide-SNAC substrate; 25 mM MOPS, pH 7.0
Description: (§1) Macrocyclization reactions were carried out in 25 mM MOPS, pH 7.0 in a total volume of 400 μL. Reactions were initiated by addition of TycC TE and quenched at various time points by the addition of 25 μL 1.7% TFA/water, flash frozen in liquid nitrogen and stored at −80° C. (for Ex. 13, reactions were quenched by the addition of sodium phosphate, pH 5.3, to 100 mM). The reactions were then thawed, 85 μL acetonitrile added, and analyzed by analytical HPLC with monitoring at 220 nm (20% to 80% acetonitrile in 0.1% TFA/water, or in 25 mM potassium phosphate, pH 5.3 for Ex. 13, over 35 minutes, Vydac protein and peptide C18 column). Initial rates were calculated using 1 minute time points. Peptide-SNAC and reaction product concentrations were determined for all Tyr-containing peptides based on the estimated extinction coefficient ε (280 nm)=1,280 M^−1 cm^−1, which agrees with the experimentally determined ε (280 nm) of Ex. 1. For peptide-SNACs not containing Tyr, ε (220 nm) was determined experimentally, and concentrations of corresponding cyclic products determined by assuming equal ε (220 nm) values for the peptide-SNAC and cyclic product.

[2] = substrate: CC(=O)NCCSC(=O)[C@H](CC(C)C)NC(=O)[C@H](CCC(=O)O)NC(=O)[C@@H](NC(=O)[C@H](Cc1ccc(O)cc1)NC(=O)[C@H](CCC(N)=O)NC(=O)[C@H](CC(N)=O)NC(=O)[C@@H](Cc1ccccc1)NC(=O)[C@H](Cc1ccccc1)NC(=O)[C@@H]1CCCN1C(=O)[C@H](N)Cc1ccccc1)C(C)C; settings: other: Table 1; macrocyclization of peptide-SNAC substrate; 25 mM MOPS, pH 7.0
Description: as §1

[3] = substrate: CC(=O)NCCSC(=O)[C@H](CC(C)C)NC(=O)[C@H](CCCN)NC(=O)[C@@H](NC(=O)[C@H](C)NC(=O)[C@H](CCC(N)=O)NC(=O)[C@H](CC(N)=O)NC(=O)[C@@H](Cc1ccccc1)NC(=O)[C@H](Cc1ccccc1)NC(=O)[C@@H]1CCCN1C(=O)[C@H](N)Cc1ccccc1)C(C)C; settings: other: Table 1; macrocyclization of peptide-SNAC substrate; 25 mM MOPS, pH 7.0
Description: as §1

[4] = substrate: CC(=O)NCCSC(=O)[C@H](CC(C)C)NC(=O)[C@H](CCCN)NC(=O)[C@@H](NC(=O)[C@H](CC(C)C)NC(=O)[C@@H]1CCCN1C(=O)[C@@H](Cc1ccccc1)NC(=O)[C@H](CC(C)C)NC(=O)[C@H](CCCN)NC(=O)[C@@H](NC(=O)[C@H](CC(C)C)NC(=O)[C@@H]1CCCN1C(=O)[C@H](N)Cc1ccccc1)C(C)C)C(C)C; settings: other: Table 2; cyclization of peptide-SNAC substrates of 6-14 amino acids
Description: as §1

[5] = substrate: CC(=O)NCCSC(=O)[C@H](CC(C)C)NC(=O)[C@H](CCCN)NC(=O)[C@@H](NC(=O)[C@H](Cc1ccc(O)cc1)NC(=O)[C@H](C)NC(=O)[C@H](CC(N)=O)NC(=O)[C@@H](Cc1ccccc1)NC(=O)[C@H](Cc1ccccc1)NC(=O)[C@@H]1CCCN1C(=O)[C@H](N)Cc1ccccc1)C(C)C; settings: other: Table 1; macrocyclization of peptide-SNAC substrate; 25 mM MOPS, pH 7.0
Description: as §1

[6] = substrate: CC(=O)NCCSC(=O)[C@H](CC(C)C)NC(=O)[C@H](CCCN)NC(=O)[C@@H](NC(=O)[C@H](Cc1ccc(O)cc1)NC(=O)[C@H](CCC(N)=O)NC(=O)[C@H](C)NC(=O)[C@H](CC(N)=O)NC(=O)[C@@H](Cc1ccccc1)NC(=O)[C@H](Cc1ccccc1)NC(=O)[C@@H]1CCCN1C(=O)[C@H](N)Cc1ccccc1)C(C)C; settings: other: Table 1; macrocyclization of peptide-SNAC substrate; 25 mM MOPS, pH 7.0
Description: as §1

[7] = substrate: CC(=O)NCCSC(=O)[C@H](CC(C)C)NC(=O)[C@H](CCCN)NC(=O)[C@@H](NC(=O)[C@H](Cc1ccc(O)cc1)NC(=O)[C@H](CCC(N)=O)NC(=O)[C@H](CC(N)=O)NC(=O)[C@@H](C)NC(=O)[C@H](Cc1ccccc1)NC(=O)[C@@H]1CCCN1C(=O)[C@H](N)Cc1ccccc1)C(C)C; settings: other: Table 1; macrocyclization of peptide-SNAC substrate; 25 mM MOPS, pH 7.0
Description: as §1

[8] = substrate: CC(=O)NCCSC(=O)[C@H](CC(C)C)NC(=O)[C@H](CCCN)NC(=O)[C@@H](NC(=O)[C@H](Cc1ccc(O)cc1)NC(=O)[C@H](CCC(N)=O)NC(=O)[C@H](CC(N)=O)NC(=O)[C@H](Cc1ccccc1)NC(=O)[C@@H]1CCCN1C(=O)[C@H](N)Cc1ccccc1)C(C)C; settings: other: Table 1; macrocyclization of peptide-SNAC substrate; 25 mM MOPS, pH 7.0
Description: as §1

[9] = substrate: CC(=O)NCCSC(=O)[C@H](CC(C)C)NC(=O)[C@H](CCCN)NC(=O)[C@@H]1CCCN1C(=O)[C@@H](Cc1ccccc1)NC(=O)[C@H](CC(C)C)NC(=O)[C@H](CCCN)NC(=O)[C@@H]1CCCN1C(=O)[C@H](N)Cc1ccccc1; settings: other: Table 2; cyclization of peptide-SNAC substrates of 6-14 amino acids
Description: as §1

[10] = substrate: CC(=O)NCCSC(=O)[C@H](CC(C)C)NC(=O)[C@H](CCCN)NC(=O)[C@H](C)NC(=O)[C@H](Cc1ccc(O)cc1)NC(=O)[C@H](CCC(N)=O)NC(=O)[C@H](CC(N)=O)NC(=O)[C@@H](Cc1ccccc1)NC(=O)[C@H](Cc1ccccc1)NC(=O)[C@@H]1CCCN1C(=O)[C@H](N)Cc1ccccc1; settings: other: Table 1; macrocyclization of peptide-SNAC substrate; 25 mM MOPS, pH 7.0
Description: as §1

B1: TycC TE (excised TE domain protein from the tyrocidine NRPS) (Brevibacillus parabrevis) (protein)
chain: FESRYGTAILLNQETARNVFCFTPIGAQSVYYQKLAAEIQGVSLYSFDFIQDDNRMEQYIAAITAIDPSGPYTLMGYSSGGNLAFEVAKELEERGYGVTDIILFDSYWKDKAIERTVAETENDIAQLFAEIGENTEMFNMTQEDFQLYAANEFVKQSFVRKTVSYVMFHNNLVNTGMTTAAIHLIQSELEADEEAPVAAKWNESAWANATQRLLTYSGHGIHSRMLAGDYASQNASILQNILQELFILK
notes: excised TE domain protein from the tyrocidine NRPS (TycC TE); made in house
In the case of B1, the Km [1] is reported as 6 µM, the Km [2] is reported as 56 µM and the Km [3] is reported as 15 µM. It also gave a Km [4] of 6 µM, a kcat [4] of 0.367 s⁻¹ and a Km [5] of 4 µM. It also gave a Km [6] of 20 µM, a Km [7] of 6 µM and a Km [8] of 6 µM. For the same protein, the Km [9] was 3 µM, the kcat [9] was 0.283 s⁻¹ and the Km [10] was 9 µM.
